B1: Peripheral plasma membrane protein CASK, residues 488 to 569; numbered along this chain, O14936 (parent)
chain: VRLVQFQKNTDEPMGITLKMNELNHCIVARIMHGGMIHRQGTLHVGDEIREINGISVANQTVEQLQKMLREMRGSITFKIVP

± gives the uncertainty stated by the source.

Variants of B1 are the subject of the series. Put plainly: abundance fitness (aPCA) (normalised: wild type 0, dead -1); higher = more abundant; growth selection in yeast, the domain comes from the species named. The following applies: Homo sapiens.
Turning to M32Y, the abundance fitness is -0.086 ± 0.072.
M32T: the abundance fitness stood at 0.015 ± 0.044.
In the case of V28P, the abundance fitness is -1.08 ± 0.097.
With V28K, the abundance fitness was -1.16 ± 0.12.
Consider N9D, for which the abundance fitness was determined as 0.024 ± 0.033.
With N9C, the abundance fitness is -0.092 ± 0.032.
In the case of N9F, the abundance fitness is -0.035 ± 0.043.
Consider N9G, for which the abundance fitness is -0.027 ± 0.02.
Regarding K19I, the abundance fitness was -0.102 ± 0.045.
As to K19Y, the abundance fitness is -0.01 ± 0.041.
Regarding K19V, the abundance fitness was -0.008 ± 0.025.
Take K19T: the abundance fitness was -0.009 ± 0.03.
Consider K19W, for which the abundance fitness is -0.195 ± 0.03.
On to K19Q, for which the abundance fitness was -0.016 ± 0.035.
As for K19C, the abundance fitness is -0.089 ± 0.036.
The same measure for E12V: -0.139 ± 0.029; for E12I: -0.09 ± 0.094.
For E12F, the abundance fitness is -0.231 ± 0.076.
Take E12L: the abundance fitness was -0.131 ± 0.033.
Consider E12N, for which the abundance fitness was -0.277 ± 0.066.
For E12D, the abundance fitness was -0.101 ± 0.05.
For the variant V1D, the abundance fitness is 0.055 ± 0.039.
Consider V1W, for which the abundance fitness was -0.122 ± 0.047.
Turning to I16G, the abundance fitness was -0.98 ± 0.075.
Take I16Q: the abundance fitness was -0.849 ± 0.12.
For the variant I16V, the abundance fitness was -0.081 ± 0.034.
I16P: the abundance fitness is -0.765 ± 0.13.
Regarding I16D, the abundance fitness was -0.933 ± 0.21.
With I16F, the abundance fitness was found to be 0.109 ± 0.064.
The same measure for I16S: -1.08 ± 0.15.
Take I16Y: the abundance fitness is -0.593 ± 0.11.
Regarding I52N, the abundance fitness is -0.199 ± 0.22.
For I52L, the abundance fitness was -0.115 ± 0.19.
Consider M36W, for which the abundance fitness was 0.068 ± 0.035.
On to M36Y, for which the abundance fitness came out at 0.066 ± 0.072.
On to M36I, for which the abundance fitness amounted to 0.029 ± 0.061.
In the case of M36G, the abundance fitness was -0.05 ± 0.029.
Take M36N: the abundance fitness is -0.07 ± 0.08.
Consider D11S, for which the abundance fitness came out at 0.009 ± 0.04.
With D11L, the abundance fitness is -0.092 ± 0.038.
D11T: the abundance fitness is 0.055 ± 0.049.
With D11W, the abundance fitness was -0.175 ± 0.038.
D11K: the abundance fitness is -0.054 ± 0.061.
The same measure for G54C: -0.254 ± 0.051; for G54A: -0.191 ± 0.034; for G54T: -0.17 ± 0.049.
For the variant L43A, the abundance fitness was -0.722 ± 0.04.
On to L43K, for which the abundance fitness is -0.99 ± 0.09.
Take L43Q: the abundance fitness was -1.01 ± 0.1.
With L43M, the abundance fitness is -0.021 ± 0.03.
In the case of H44M, the abundance fitness is -0.024 ± 0.03.
With H44E, the abundance fitness was found to be 0.02 ± 0.035.
H44W: the abundance fitness is -0.281 ± 0.03.
Take H44F: the abundance fitness was -0.125 ± 0.04.
On to I31H, for which the abundance fitness was -0.779 ± 0.27.
In the case of I31F, the abundance fitness is -0.331 ± 0.13.
In the case of I27K, the abundance fitness was -0.175 ± 0.038.
As for I27F, the abundance fitness is -0.08 ± 0.037.
On to L3K, for which the abundance fitness is -0.026 ± 0.034.
The figure for Q64L is -0.08 ± 0.023; for Q64T it is -0.025 ± 0.027.
On to Q64M, for which the abundance fitness was -0.042 ± 0.028.
The same measure for E63A: -0.048 ± 0.024; for E63L: -0.092 ± 0.026.
E63V: the abundance fitness was -0.098 ± 0.023.
With E63M, the abundance fitness was -0.13 ± 0.031.
On to E63S, for which the abundance fitness was -0.035 ± 0.028.
For the variant L65G, the abundance fitness was -0.817 ± 0.047.
Regarding L65Q, the abundance fitness was -0.33 ± 0.039.
For the variant L65S, the abundance fitness is -0.183 ± 0.031.
The figure for E71R is -0.008 ± 0.022; for E71D it is 0.007 ± 0.046; for E71T it is -0.036 ± 0.034.
The figure for E71N is -0.044 ± 0.063.
For the variant E71M, the abundance fitness is -0.053 ± 0.034.
For H25A, the abundance fitness was -0.016 ± 0.024.
For the variant H25Q, the abundance fitness is 0.019 ± 0.03.
Take H25P: the abundance fitness is -0.819 ± 0.06.
In the case of H25E, the abundance fitness is 0.019 ± 0.027.
The same measure for H25T: -0.09 ± 0.029; for H25R: -0.016 ± 0.021; for I55Y: -0.061 ± 0.053.
The same measure for I55P: -1.05 ± 0.089; for I55M: 0.008 ± 0.034.
Consider I55A, for which the abundance fitness is -0.016 ± 0.024.
Take I55N: the abundance fitness was -0.113 ± 0.05.
In the case of I55V, the abundance fitness was -0.035 ± 0.024.
I55Q: the abundance fitness was found to be 0.035 ± 0.028.
On to F78S, for which the abundance fitness was -0.839 ± 0.065.
F78C: the abundance fitness was -0.233 ± 0.052.
As for F78H, the abundance fitness is -0.95 ± 0.16.
As for F78M, the abundance fitness came to 0.052 ± 0.1.
With F78I, the abundance fitness was -0.045 ± 0.038.
The figure for F78A is -0.473 ± 0.047.
In the case of L23F, the abundance fitness is -0.04 ± 0.049.
L23Q: the abundance fitness is 0.043 ± 0.035.
Take L23Y: the abundance fitness worked out at 0.128 ± 0.043.
For the variant L23H, the abundance fitness turned out to be 0.028 ± 0.049.
On to L23S, for which the abundance fitness is 0.028 ± 0.029.
The figure for H33E is 0.066 ± 0.033; for H33L it is -0.119 ± 0.028.
For H33D, the abundance fitness is -0.011 ± 0.044.
Turning to H33M, the abundance fitness is -0.026 ± 0.036.
As for H33V, the abundance fitness was determined as 0.003 ± 0.028.
With H33T, the abundance fitness was determined as 0.005 ± 0.035.
For the variant D47C, the abundance fitness is -0.552 ± 0.15.
Turning to D47T, the abundance fitness is -0.788 ± 0.15.
As for D47E, the abundance fitness is -0.323 ± 0.061.
As to V45M, the abundance fitness was -0.025 ± 0.074.
Regarding V45L, the abundance fitness was -0.061 ± 0.05.
On to V45K, for which the abundance fitness was -0.207 ± 0.083.
Take V45P: the abundance fitness was -0.059 ± 0.072.
For V45C, the abundance fitness is -0.128 ± 0.079.
The same measure for V45N: -0.292 ± 0.12; for H38Q: 0.024 ± 0.034; for V62N: 0.01 ± 0.047.
For V62H, the abundance fitness is -0.131 ± 0.047.
As to R73G, the abundance fitness was -0.022 ± 0.021.
For the variant R73N, the abundance fitness was found to be 0.038 ± 0.058.
The same measure for R73F: -0.124 ± 0.059.
Regarding L18A, the abundance fitness was -0.761 ± 0.065.
The figure for L18Q is -0.797 ± 0.13.
The same measure for L18W: -0.492 ± 0.05.
As for R50Q, the abundance fitness is -0.018 ± 0.049.
Regarding R50A, the abundance fitness was -0.025 ± 0.033.
R50T: the abundance fitness is -0.028 ± 0.043.
The figure for N21W is -0.6 ± 0.044.
As for N21T, the abundance fitness is -0.041 ± 0.027.
For N21S, the abundance fitness is -0.045 ± 0.024.
As for N21F, the abundance fitness was -0.415 ± 0.05.
Consider G46P, for which the abundance fitness is -0.877 ± 0.13.
Turning to G46S, the abundance fitness is -0.491 ± 0.041.
With G46Q, the abundance fitness was -0.61 ± 0.084.
For the variant G46I, the abundance fitness was -1.01 ± 0.24.
The figure for G46H is -0.471 ± 0.13.
With G46M, the abundance fitness was -0.553 ± 0.076.
For the variant M14C, the abundance fitness is -0.127 ± 0.046.
M14K: the abundance fitness was -0.784 ± 0.1.
Turning to M14V, the abundance fitness is -0.017 ± 0.032.
Regarding M14Y, the abundance fitness was -0.206 ± 0.049.
On to R70Q, for which the abundance fitness is -0.023 ± 0.031.
As to R70G, the abundance fitness was determined as 0.006 ± 0.022.
The same measure for R70D: 0.038 ± 0.035.
For the variant R70C, the abundance fitness is -0.029 ± 0.03.
For the variant R70S, the abundance fitness is -0.015 ± 0.023.
As to Q5F, the abundance fitness is -0.041 ± 0.032.
In the case of Q5A, the abundance fitness is 0.07 ± 0.023.
Take Q5K: the abundance fitness was determined as 0.128 ± 0.03.
As for Q5V, the abundance fitness came out at 0.029 ± 0.023.
On to E51L, for which the abundance fitness is -0.442 ± 0.39.
In the case of E51S, the abundance fitness came out at 0.102 ± 0.096.
The same measure for N53S: -0.183 ± 0.043; for N53A: -0.308 ± 0.041; for P13C: 0.024 ± 0.06.
The figure for P13A is -0.065 ± 0.07.
The figure for P13K is 0.055 ± 0.07.
C26V: the abundance fitness turned out to be 0.015 ± 0.023.
Regarding C26G, the abundance fitness was -0.736 ± 0.029.
The figure for S75C is -0.011 ± 0.036.
On to S75I, for which the abundance fitness was -0.116 ± 0.046.
As for S75N, the abundance fitness was -0.023 ± 0.047.
Take S75G: the abundance fitness was found to be 0.001 ± 0.021.
S75E: the abundance fitness was -0.029 ± 0.03.
Take I80T: the abundance fitness is -0.142 ± 0.038.
The figure for I80M is -0.169 ± 0.046.
The figure for I80A is -0.468 ± 0.053; for I80Y it is -0.188 ± 0.06.

For the origin of these results see the Human Domainome abundance scans (Beltran et al. 2025).
